From patent US20230151095A1 (published 2023)
Positions count from the first letter of the chain named. Read-outs that look alike come from different tables or passages of the source. Blank lines part the entries; values can stand above or below the binder they belong to.

Assays:
NKG2D = target: T1, NKG2D (human, UniProt P26718 78-216)
T1 chain: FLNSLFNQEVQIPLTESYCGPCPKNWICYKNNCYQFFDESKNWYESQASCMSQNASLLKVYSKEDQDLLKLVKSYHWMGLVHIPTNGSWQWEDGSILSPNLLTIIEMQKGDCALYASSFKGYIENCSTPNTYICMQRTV

XENP38100 (1D2B4) [1] = assay: Octet
XENP38100 (1D2B4) [2] = assay: Octet; remark: listed apart in the source

B1: XENP40557 B7H3 Fab x NKG2D scFv (mAb-scFv) (antibody)
chain 1: EVQLLESGGGLVQPGGSLRLSCAVSGFSLSSYGVIWVRQAPGKGLEYVSWVSSGGSTNYASSVKGRFTISRDTSKNTVYLQMNSLRAEDTAVYFCARGATNSGTDIWGPGTLVTVSSASTKGPSVFPLAPSSKSTSGGTAALGCLVKDYFPEPVTVSWNSGALTSGVHTFPAVLQSSGLYSLSSVVTVPSSSLGTQTYICNVNHKPSDTKVDKKVEPKSCDKTHTCPPCPAPPVAGPSVFLFPPKPKDTLMISRTPEVTCVVVDVKHEDPEVKFNWYVDGVEVHNAKTKPREEEYNSTYRVVSVLTVLHQDWLNGKEYKCKVSNKALPAPIEKTISKAKGQPREPQVYTLPPSREEMTKNQVSLTCDVSGFYPSDIAVEWESDGQPENNYKTTPPVLDSDGSFFLYSKLTVDKSRWEQGDVFSCSVMHEALHNHYTQKSLSLSPGK
chain 2: not shown
chain 3: DIVMTQSPSSLSASVGDRVTITCRASQSINSWLSWYQQKPGKPPKLLIYGASNLASGVPSRFKGSGSGTDFTLTISSLQPEDFATYYCQNNYGIIAAGATFGGGTKVEIKRTVAAPSVFIFPPSDEQLKSGTASVVCLLNNFYPREAKVQWKVDNALQSGNSQESVTEQDSKDSTYSLSSTLTLSKADYEKHKVYACEVTHQGLSSPVTKSFNRGEC
- Kd (NKG2D): 28.8 nM

B4: human NKG2D (Fc fusion)
chain: T1 chain
- Kd (XENP38100 (1D2B4) [2]): 10.4 nM

Other lines, results leading:

- Kd (NKG2D): 7.72 nM
B2: XENP40376 B7H3 Fab x NKG2D scFv (1+1) (antibody)
chain 1: B1 chain 1
chain 2: not shown
chain 3: B1 chain 3

- Kd (XENP38100 (1D2B4) [1]): 5.05 nM
B3: cynomolgus NKG2D (receptor)
chain: T1 chain with D38N, T128I
